This is an account of results in patent US20230416394A1.

The target of one assay is human CD39 (human) (UniProt P49961). As to the kind of experiment: cell-based or functional assay.
Assay [1] has as its target human TGFβ1 (human) (UniProt P01137). Description: ELISA, coated human TGFβ1.
For assay [2] the target is unchanged. Description: Octet, ES014-1 on sensor, TGFβ gradient.
Assay [3] deals with human CD39 protein (Octet assays) (human). As to the kind of experiment: Octet, ES014-1 on sensor, CD39 protein gradient.
Assay [4] addresses human TGFβ1 (human) (UniProt P01137). As to the kind of experiment: ELISA, blocking of TGFβRII-His binding to coated TGFβ1.

Sequence of human TGFβ1 (human) (P01137 279-390 limits assumed): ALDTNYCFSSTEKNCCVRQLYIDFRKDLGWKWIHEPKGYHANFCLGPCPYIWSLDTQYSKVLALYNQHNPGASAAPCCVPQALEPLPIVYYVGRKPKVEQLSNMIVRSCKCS
Sequence of human CD39 (human) (P49961 whole entry): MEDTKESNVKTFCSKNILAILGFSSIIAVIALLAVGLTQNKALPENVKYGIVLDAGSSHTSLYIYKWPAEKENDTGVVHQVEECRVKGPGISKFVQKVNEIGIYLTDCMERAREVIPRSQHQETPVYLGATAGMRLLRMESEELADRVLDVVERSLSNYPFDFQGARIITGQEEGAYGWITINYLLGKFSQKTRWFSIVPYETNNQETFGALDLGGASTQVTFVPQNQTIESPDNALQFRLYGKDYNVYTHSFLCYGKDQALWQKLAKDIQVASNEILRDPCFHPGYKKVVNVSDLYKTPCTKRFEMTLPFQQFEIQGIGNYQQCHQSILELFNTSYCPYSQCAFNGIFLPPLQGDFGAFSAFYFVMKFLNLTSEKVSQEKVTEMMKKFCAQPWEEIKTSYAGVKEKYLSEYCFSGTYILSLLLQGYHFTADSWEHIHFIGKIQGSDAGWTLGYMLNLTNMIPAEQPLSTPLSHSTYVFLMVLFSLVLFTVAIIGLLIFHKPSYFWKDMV

Regarding ES014-1 (bispecific antibody), the IC50 to CD39 ATPase activity on MOLP-8 cells (CellTiterGlo) with human CD39 (human) was 1210 pM. This substance returned a concentration for a half-maximal effect (EC50) in the assay with human TGFβ1 (human) [1] of 260 pM. In addition, in the assay with human TGFβ1 (human) [2], the Kd is 37 pM, the off-rate constant (koff) came to 0.000234 s⁻¹ and the kon came out at 6.32e+06 M⁻¹ s⁻¹. In assay [3], this substance returned a dissociation constant (Kd) of 376 pM, a koff of 3.44e-05 s⁻¹ and an on-rate constant (kon) of 91400 M⁻¹ s⁻¹. This substance yielded a 50% inhibitory concentration (IC50) with human TGFβ1 (human) [4] of 3730 pM.
